Values of other authors, collected in PMC4465451.

Target: His5 (UniProt position 30, DRVYIHPFHLV)
Test: mass spectrometry
Conditions: Free peptide, taken as fully solvent accessible

Substance: Angiotensin III
- pKa: 6.50
